T1: His-tagged NOB1 (human, UniProt Q9ULX3 1-412)
T1 construct: also called His-NOB1; source: E. coli BL21 Codon Plus, purified (Ni-NTA, desalted); not shown: His6, N-terminal, kept
T1 sequence (looked up): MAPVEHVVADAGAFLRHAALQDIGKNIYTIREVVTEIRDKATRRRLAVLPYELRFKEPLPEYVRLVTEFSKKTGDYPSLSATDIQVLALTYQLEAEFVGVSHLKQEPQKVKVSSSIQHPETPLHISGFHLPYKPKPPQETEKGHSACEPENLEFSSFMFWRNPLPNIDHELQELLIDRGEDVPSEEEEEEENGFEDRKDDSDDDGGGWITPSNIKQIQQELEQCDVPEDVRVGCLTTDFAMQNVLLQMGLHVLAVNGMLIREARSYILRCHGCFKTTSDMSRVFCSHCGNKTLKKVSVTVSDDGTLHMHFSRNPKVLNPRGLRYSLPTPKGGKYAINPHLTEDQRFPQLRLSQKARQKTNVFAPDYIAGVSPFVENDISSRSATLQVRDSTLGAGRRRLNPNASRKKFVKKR

B1: GST-tagged PNO1 (natural protein)
chain: not shown
notes: also called GST-PNO1; source: E. coli BL21 Codon Plus, purified (glutathione sepharose, desalted); not shown: GST, N-terminal, kept
B2: His-tagged DIM1 (natural protein, human, UniProt Q9UNQ2 1-313, looked up)
chain: MPKVKSGAIGRRRGRQEQRRELKSAGGLMFNTGIGQHILKNPLIINSIIDKAALRPTDVVLEVGPGTGNMTVKLLEKAKKVVACELDPRLVAELHKRVQGTPVASKLQVLVGDVLKTDLPFFDTCVANLPYQISSPFVFKLLLHRPFFRCAILMFQREFALRLVAKPGDKLYCRLSINTQLLARVDHLMKVGKNNFRPPPKVESSVVRIEPKNPPPPINFQEWDGLVRITFVRKNKTLSAAFKSSAVQQLLEKNYRIHCSVHNIIIPEDFSIADKIQQILTSTGFSDKRARSMDIDDFIRLLHGFNAEGIHFS
notes: also called His-DIM1; source: E. coli BL21 Codon Plus, purified (Ni-NTA, desalted); not shown: His6, N-terminal, kept

Assays:
[1] = molecular target: T1, His-tagged NOB1; test: pull-down; 50 ng GST-tagged bait with equal amounts of His-tagged or untagged prey; 50 mM Tris-HCl pH 8.0, 10% glycerol, 300 mM NaCl, 5 mM MgCl2, 0.1% Tween20; 1 h at 4°C; glutathione sepharose; western blotting; conditions: both partners purified
[2] = molecular target: T2, GST-tagged RIO2 (human, UniProt Q9BVS4-1 1-552); test: as above; conditions: both partners purified
T2 construct: also called GST-RIO2; source: E. coli BL21 Codon Plus, purified (glutathione sepharose, desalted); not shown: GST, N-terminal, kept
T2 sequence (Q9BVS4 whole entry): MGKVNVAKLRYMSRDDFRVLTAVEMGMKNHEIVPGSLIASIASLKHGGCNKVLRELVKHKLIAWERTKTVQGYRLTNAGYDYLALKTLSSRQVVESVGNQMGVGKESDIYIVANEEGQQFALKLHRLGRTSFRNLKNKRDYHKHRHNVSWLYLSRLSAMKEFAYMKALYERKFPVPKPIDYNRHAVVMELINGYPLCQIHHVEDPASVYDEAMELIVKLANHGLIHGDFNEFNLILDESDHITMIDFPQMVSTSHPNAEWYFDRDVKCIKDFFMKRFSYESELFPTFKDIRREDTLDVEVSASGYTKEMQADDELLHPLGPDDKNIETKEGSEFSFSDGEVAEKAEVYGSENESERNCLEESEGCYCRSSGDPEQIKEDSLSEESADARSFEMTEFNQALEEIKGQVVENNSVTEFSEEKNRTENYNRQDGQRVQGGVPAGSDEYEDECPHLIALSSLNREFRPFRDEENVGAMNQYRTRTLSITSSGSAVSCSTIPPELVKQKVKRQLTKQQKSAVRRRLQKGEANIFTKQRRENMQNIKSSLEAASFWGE

Row | Binder | binding result [1] | binding result [2]
1 | B1 | binds | –
2 | B2 | – | binds

Reference: PMC6380343, “Interactions and activities of factors involved in the late stages of human 18S rRNA maturation” (RNA Biology, 2019)
